Source: article PMC3898201

Assays:
[1] = target: proteasome catalytic subunit β2 (in the purified rabbit 20S constitutive proteasome) (rabbit); assay: FRET or BRET
[2] = target: proteasome catalytic subunit β5 (in the purified rabbit 20S constitutive proteasome) (rabbit); assay: FRET or BRET

Substance | FRET efficiency E [1] | FRET efficiency E [2] | FRET efficiency E (fluorophores swapped: LKSCy3:UKPCy5) [2]
proteasome catalytic subunit β1 (in the purified rabbit 20S constitutive proteasome) (natural protein) | 0.18 | 0.55 | 0.55
proteasome catalytic subunit β5 (in the purified rabbit 20S constitutive proteasome) (natural protein) | 0.45 | – | –
